According to US6303653:

System: HNF-4alpha (transfected expression vector)
Assay: cell_activity
Settings: COS-7 cotransfection, no added fatty acids

In the case of “one to three C3P copies enhancing TK promoter CAT reporter”, the activity (fold activation) is reported as 7.
